According to US20210032350A1 (Memorial Sloan Kettering, published 2021):

How the values were obtained:
mouse Galectin-3 = target: T1, mouse Galectin-3 (mouse, UniProt P16110 2-264, limits assumed); experiment: ELISA screening (Table 1, antigen target)
T1 construct: also called mLGALS3; mouse LGALS3

human Galectin-3 = target: T2, human Galectin-3 (human, UniProt P17931 1-250); experiment: SPR, antibody captured on anti-mouse Fc surface, 8-pt 2-fold dilution series of LGALS3 from 500 nM
T2 construct: In the laminin assay it was biotin-labelled; also called LGALS3; Gal3
T2 sequence (P17931 whole entry): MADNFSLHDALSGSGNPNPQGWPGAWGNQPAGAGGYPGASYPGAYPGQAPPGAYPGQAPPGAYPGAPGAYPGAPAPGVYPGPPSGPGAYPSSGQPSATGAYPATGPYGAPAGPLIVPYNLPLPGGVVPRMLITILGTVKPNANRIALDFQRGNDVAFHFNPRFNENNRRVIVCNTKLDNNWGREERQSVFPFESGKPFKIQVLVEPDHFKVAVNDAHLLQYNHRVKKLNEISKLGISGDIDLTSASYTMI
Experimental: SPR: Antibody binding to LGALS3 was confirmed by surface plasmon resonance (SPR) assay. The antibody was captured on an anti-mouse Fc surface and an 8-pt. 2-fold dilution series of LGALS3 was flown over the antibody starting at 500 nM.

T1 sequence (P16110 2-264 limits assumed): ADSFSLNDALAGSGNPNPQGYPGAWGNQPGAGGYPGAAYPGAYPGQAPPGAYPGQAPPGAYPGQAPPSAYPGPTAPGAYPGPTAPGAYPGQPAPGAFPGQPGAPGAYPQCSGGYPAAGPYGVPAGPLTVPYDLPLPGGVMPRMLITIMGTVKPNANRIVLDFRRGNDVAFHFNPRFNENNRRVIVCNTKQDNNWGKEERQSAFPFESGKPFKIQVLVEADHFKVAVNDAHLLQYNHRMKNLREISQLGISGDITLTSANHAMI

B1: 112516.14D11.2D2 (antibody, V domains shown)
VH: QVQLKESGPGLVAPSQSLSITCTISGFSLSSYGVHWVRQPPGKGLEWLVVIWSDGSTTYNSTLKSRLSISKDNSKSQVFLKMNSLQTDDTAMYYCARHISNYGTMDYWGQGTSVTVS
VL: DIQMTQTTSSLSASLGDRVTISCRASQDIRNYLNWYQQKPDGSIKLLIYYTSRLHSGVPSRFSGSGSGTDYSLTIRNLEQEDIATYFCQHFNTLPPTFGGGTKLEIK
Q: Does B1 bind (mouse Galectin-3)?
A: binds

Q: And the Kd (human Galectin-3)?
A: 14.6 nM
